These results are taken from the RNAGym collection of RNA variant scans (doi:10.7554/elife.90254).

B1: LINE1-full (parent)
chain: UACGUAGGUGGUUUUCCCCUGAUAGUGCUAAGGGGGCCUGGAAGUUUGGACUGGGCAGAGCUCAACACAGCGUGGCAAAGUGGCUGUGGCUAGACUGCCUCUCUGGAUUCCUCGUCACUCAGCAGGGCAUCUCUGAGAGAAAUGCC

Variants of B1 are the subject of this data set. In words: self-cleavage, relative activity (ratio to wild type); higher = more cleavage; in vitro, sequencing; the parent is a self-cleaving ribozyme.
As for G25A G54U, the self-cleavage amounted to 0.45.
Under A24U U108C stands 1.33; under A24U U108A, 1.51; under A24G A50U, 1.55.
The figure for U26C A140U is 0.59.
The figure for A24U A78G is 1.31; for A24G G35A it is 0.69; for G25A U87C it is 0.22.
Take U26A A59G: the self-cleavage was 0.06.
With U26C C38A, the self-cleavage stood at 1.28.
The figure for U26A C128U is 0.72; for A24U A136G it is 1.64.
Regarding U26A A136U, the self-cleavage is 1.2.
With A24G G33C, the self-cleavage amounted to 0.8.
As for A24G A117G, the self-cleavage turned out to be 1.78.
Under U26C U39C stands 0.9.
Under G25A U115A stands 1.05; under A24U A107U, 1.64.
For A24U A107G, the self-cleavage is 2.24.
Regarding G25U G114A, the self-cleavage is 1.13.
For the variant A24G A67G, the self-cleavage is 0.45.
With G25A U26A, the self-cleavage is 1.07.
With U26C G105A, the self-cleavage turned out to be 1.32.
The figure for U26A G114A is 0.67; for U26A A138G it is 1.25.
The figure for U26A A138U is 0.78; for U26A G88A it is 0.07.
Under A24G A124U stands 1.54; under U26C G75U, 0.57; under A24U G35A, 0.8.
Take A24U G35U: the self-cleavage came to 0.67.
Under U26C G53U stands 1.2.
Under U26A U87A stands 0.01.
Under U26A C99U stands 0.37.
Take U26A C99A: the self-cleavage worked out at 0.09.
With U26A C116U, the self-cleavage came out at 0.99.
Regarding U26A G58U, the self-cleavage was 0.05.
The figure for U26A U143A is 2.23; for U26A U143C it is 0.86.
The figure for G25A A141G is 0.96; for A24U C116A it is 1.7.
The figure for A24C G139A is 1.45; for G25U A59G it is 0.18; for U26A G72U it is 0.77.
In the case of A24G G122C, the self-cleavage is 1.12.
In the case of G25C C98G, the self-cleavage amounted to 0.25.
The figure for U26A A124C is 1.4.
Take A24C A57G: the self-cleavage was 1.17.
Under A24G U52A stands 0.79; under A24U U47A, 0.99; under A24U U73C, 1.79.
Under A24C A138G stands 0.88; under U26C G54A, 0.6.
The figure for A24C C99A is 0.47.
Consider U26A A121U, for which the self-cleavage came to 1.11.
On to U26A A121G, for which the self-cleavage was 1.46.
Turning to A24G A78G, the self-cleavage was 1.19.
The figure for A24G A78U is 2.33; for A24U U96A it is 0.07; for A24U U96C it is 0.07.
Regarding A24U U112C, the self-cleavage stood at 1.28.
Under A24G G34U stands 0.21; under A24U A59G, 0.06; under U26A C103U, 0.98.
Under A24U A138U stands 1.93.
Turning to U26A A77G, the self-cleavage was found to be 1.84.
The figure for U26C A107C is 1.89; for A24G A136G it is 1.15.
With G25A U100C, the self-cleavage stood at 1.81.
Under A24U U130C stands 1.35; under U26A A92U, 0.61; under U26A A50C, 0.78.
Under G25A U96C stands 0; under A24U A92G, 0.08.
The figure for A24C A77G is 2.76; for A24G U109C it is 0.76.
Consider G25U A42G, for which the self-cleavage stood at 1.04.
The figure for G25C A69G is 0.14; for A24G G27U it is 1.17; for A24U C120U it is 0.79.
Under U26A U91C stands 0.32; under A24U A69U, 0.09; under A24U A69G, 0.53.
Under U26A A141G stands 1.11; under U26A C76A, 1.51; under A24U A30G, 1.09.
Turning to U26A A57U, the self-cleavage was 0.04.
As to A24G U26C, the self-cleavage turned out to be 0.97.
Under A24G U81A stands 0.47; under G25A A79G, 0.91.
The figure for U26C U52C is 0.98; for U26A G82A it is 1.18; for U26A U85C it is 0.17.
Take U26A U85A: the self-cleavage came out at 0.16.
Under A24G A64U stands 0.47.
Under U26A C120A stands 1.12; under A24G G75A, 1.02.
Under U26C A43C stands 1.63; under U26C A43G, 1.43; under U26C G144C, 1.68.
Take A24C U47C: the self-cleavage came out at 2.18.
Under A24U U46C stands 1.54; under U26A A64G, 0.2; under U26A A64U, 0.23.
For A24G U85G, the self-cleavage came out at 0.1.
Consider A24G U85A, for which the self-cleavage came to 0.13.
As to U26A C38A, the self-cleavage was 0.73.
Under A24G U119C stands 0.83; under U26A U39C, 0.73.
In the case of U26C U73C, the self-cleavage was determined as 1.45.
On to U26C U73A, for which the self-cleavage worked out at 1.48.
The figure for U26C A59U is 0.84; for U26A C133U it is 1.01; for A24G A59G it is 0.21.
Turning to U26A G74U, the self-cleavage was found to be 1.94.
The figure for A24U A77G is 2.22.
A24U A77U: the self-cleavage was 0.93.
Under G25A A30U stands 0.7.
The figure for U26C C76U is 1.87.
On to U26C A31C, for which the self-cleavage is 1.23.
Under U26C A31G stands 0.91; under U26C A94G, 0.39; under U26C A94U, 0.28.
The figure for U26A C66A is 0.05; for A24G A30G it is 0.42; for G25U it is 1.45.
On to G25A, for which the self-cleavage amounted to 1.21.
Under G25C stands 1.4.
As to A24U A57U, the self-cleavage turned out to be 0.16.
Under A24U A57C stands 0; under A24U U87C, 0.3; under A24G, 1.17.
With A24U, the self-cleavage was 1.25.
Regarding U26A C95U, the self-cleavage was 0.17.
U26C G135A: the self-cleavage worked out at 1.65.
Under U26A U45G stands 0.6; under U26A A79G, 0.75.
Under A24G A121U stands 2.93.
Under A24G A121C stands 2.3; under U26A G144A, 1.03; under G25U C123A, 0.95.
Consider U26C U85A, for which the self-cleavage is 0.11.
Turning to U26C U85C, the self-cleavage was found to be 0.27.
Under U26C U29A stands 1.35; under U26C U46C, 1.71.
Turning to U26C U46G, the self-cleavage is 1.62.
Under A24U U104A stands 0.65; under A24U U104C, 1.25.
The figure for U26C A129G is 1.41.
The figure for A24G A141U is 1.41; for A24G U102A it is 1.15; for A24G U102C it is 1.73.
As for A24G U102G, the self-cleavage was found to be 0.54.
Consider A24G A69U, for which the self-cleavage came to 0.21.
Under U26C A69C stands 0.08.
Consider G25A G105A, for which the self-cleavage worked out at 1.27.
Take U26C A78G: the self-cleavage was 1.1.
Under A24G A138G stands 1.07; under U26C A30G, 1.05; under A24G U91C, 0.81.
Under U26C C63U stands 0.66.
G25U A79G: the self-cleavage is 0.77.
The figure for A24U U45C is 1.19.
In the case of A24U U45A, the self-cleavage was 0.82.
Under A24G U104C stands 2.26; under A24G U104A, 1.24.
Under G25C C116U stands 1.52.
